According to US8114412B2, “T. cruzi-derived neurotrophic agents and methods of use therefor” (priority 1999, dated 2012):
Entries after “also recorded” stand apart in the source; their conditions may differ.

How the values were obtained:
N18 cells = assay: Neurite outgrowth assay in N18 cells; format: cell-based; settings: immobilized proteins coated at 500 μg/ml, 17 hours (FIG. 3A)
Method: FIG. 3A is a graph showing that neurite outgrowth in N18 cells is induced by immobilized laminin (Ln), immobilized TS and immobilized fragments of TS. Proteins were immobilized by incubating plates which contained wells filled with solutions of the proteins (protein concentration was 500 μg/ml) at 4° C. overnight. The protein solutions were removed and the plates were further incubated with 1% BSA at room temperature for one hour. N18 cells were cultured in the coated wells in serum-free RPMI-1640/0.2% BSA for 17 hours, and neurite outgrowth was measured by phase-contrast microscopy. […] Ln, laminin; TS, purified T. cruzi trans-sialidase; 7F, recombinant TS from clone 7F; 19Y, recombinant TS from clone 19Y; TS-F, recombinant fragment consisting of amino acid residues 33-666 of TS (SEQ ID NO:2); TS-CC-47, recombinant fragment consisting of amino acid residues 79-478 of TS (SEQ ID NO:2); TS-Cat-47, recombinant fragment consisting of amino acid residues 79-415 of TS (SEQ ID NO:2); BSA, bovine serum albumin.
96-well microtiter plates were coated overnight at 4° C. with the TS or peptides or fragments thereof, or with control proteins laminin (Ln) or bovine serum albumin (BSA) at 500 μg/ml. After removing the compounds, the plates were further incubated with 1% BSA for 1 hour at room temperature and immediately used as substratum for PC12 or N18 (Prasad, K. N., Biol Rev Camb Philos Soc, 66:431-451 (1991)) cells in serum-free RPMI/0.2% BSA. Neurite outgrowth was measured using a phase-contrast microscope 17 hours later.

PC12 cells = assay: Trophic factor withdrawal-induced apoptosis of PC12 cells (DAPI/TUNEL); format: cell-based, rat
Description: PC12 cells were obtained from ATCC (Manassas, Va. (Accession No. CRL-1721)) and cultured on collagen-coated dishes in RPMI 1640 supplemented with 10% horse serum and 5% fetal bovine serum (Greene, L. A. and Tishler, A. S., Proc. Natl. Acad. Sci. USA, 73: 2424-2428 (1976)). For differentiation and survival experiments, cells were washed three times in serum-free RPMI/0.2% BSA, plated in the same medium in collagen-coated plastic dishes at 2×10^5/ml, without and with growth factors, TS, recombinant proteins, synthetic peptides, for the time and concentrations indicated in the Figures.
Cell staining with 4,6-diamino-2-phenylindole (DAPI). Cells were fixed with 4% formaldehyde in PBS for 5 minutes, washed with PBS, stained with 10 μg/ml DAPI (Sigma) for 2 minutes, washed with PBS, and visualized under UV light using a fluorescent microscope. About 300-400 cells were examined under the microscope to determine the percentage of apoptotic cells.
Cell DNA nick end labeling (TUNEL) (Gavrieli, Y., et al., J. Cell. Biol. 119: 493-501 (1992)) assay was performed using a kit purchased from Boehringer Mannheim as described by the manufacturer.
Protection against apoptosis of PC12 cells in serum-free medium containing a test agent (agent N)(e.g., protection induced by TS, TS fragments, NGF or other growth factors), was calculated by the formula: 100%-[(apoptosis(%) of cells kept in RPMI containing test agent N÷apoptosis (%) of cells kept in RPMI)×100%]. Testing the effect of wortmannin (Sigma) and LY294002 (Sigma) in inhibiting the neuroprotection of TS was performed following the protocol described by others (Yao and Cooper, Science, 267:2003-2006 (1995); D'Mello et al., J. Neurosci 17:1548-1560 (1997)). In brief, PC12 cells were switched from growth medium to RPMI without and with TS or various other growth factors. After 24 hr, wortmannin and LY294002 were added to the cultures. After another 24 hrs, cells were examined for apoptosis by the DAPI assay, as above.

human Schwann cells = assay: Serum withdrawal-induced apoptosis of immortalized human Schwann cells (DAPI); format: cell-based
Akt kinase in PC12 cells = assay: Immunodetection of activated Akt (Ser 473) in PC12 cells; format: cell-based, rat
Method: PC12 cells were deprived of serum for 24-48 hours, stimulated with TS, TS-F or LTR for 2, 5 or 10 minutes and immediately lysed with 2% SDS. In studies using the PI-3 kinase inhibitor, LY294002 (LY), cells were pre-treated with the inhibitor (1 μM) for 30 min prior to the addition of TS-F or TS. The proteins in the cell lysate were separated in SDS-10% polyacrylamide gels, transferred to nitrocellulose membrane (Bio-Rad) and the phosphorylated form of protein kinase Akt was detected with phospho-Akt (Ser 473) antibody (New England BioLabs, Beverly, Mass.), followed by alkaline phosphatase-conjugated secondary antibody (Promega, Madison, Wis.). Bands corresponding to phospho-Akt (60 kDa) were quantified using a scanning densitometer (Bio-Rad).

[1] = tested on: human bladder carcinoma T-24 cell line; assay: IL-6 secretion by T-24 carcinoma cells (ELISA); format: cell-based
Method: Primary cultures of human intestinal microvascular endothelial cells (HIMEC) isolated from normal jejunal mucosa/submucosal tissue were prepared as described (Strong et al., Gastroenterology 114: 1244-1256 (1998)). The HIMEC were cultured in fibronectin-coated plasticware in MCDB medium (Sigma) supplemented with 20% FBS, 90 μg/ml heparin and 50 μg/ml endothelial cell growth factor (Sigma). T-24 cells (ATCC Accession No. HTB-4) were cultured in M199 medium supplemented with 10% FBS. PBMC were purified by Ficoll-Paque gradient as described (Current Protocols in Immunology, pp 7.1.1-7.1.2). Vero cells (ATCC Accession No. CCL-81) were grown in RPMI medium with 5% Nu serum and infected with the Silvio X-10/4 of T. cruzi as described previously (Chuenkova et al., J. Exp. Med. 181: 1693-1703, (1995)).
Endothelial cells and T-24 cells were plated on 24-well plates at a density of 1×10^3 cells/well, while peripheral blood mononuclear cells (PBMC) were plated in the similar wells at 1×10^6/well. Triplicat cultures of cells were incubated test agents for a predetermined amount of time. […] Cytokines and chemokines released in the culture supernatants were measured by ELISA assay following the instructions of the manufacturer (Endogen). The cytokines tested were IL-1β, IL-4, IL-8, IL-10, IL-12, IFN-γ, TNF-α, and the chemokines RANTES and MCP-1. Negative controls were cells incubated in medium containing polymixin B at 10 μg/ml, and positive controls were cells incubated with bacterial LPS at the low ng/ml range (for PBMC or HIMEC) or in the μg/ml range for carcinoma T-24 cells. In some experiments, IL-1β, or TNFα were used as positive control for cytokine release.

B1: TS: T. cruzi trans-sialidase purified by immuno-affinity chromatography from supernatants of infected Vero cells (SEQ ID NO:2, SEQ ID NO:34) (protein, listed as Trypanosoma cruzi)
chain: MVAIADARYETSSENSLIDTVAKYSVDDGETWETQIAIKNSRVSSVSRVVDPTVIVKGNKLYVLVGSYYSSRSYWSSHGDARDWDILLAVGEVTKSTAGGKITASIKWGSPVSLKKFFPAEMEGMHTNQFLGGAGVAIVASNGNLVYPVQVTNKRKQVFSKIFYSEDDGKTWKFGKGRSDFGCSEPVALEWEGKLIINTRVDWKRRLVYESSDMEKPWVEAVGTVSRVWGPSPKSNQPGSQTSFTAVTIEGMRVMLFTHPLNFKGRCVRDRLNLWLTDNQRIYNVGQVSIGDENSAYSSVLYKDDKLYCLHEINTDEVYSLVFARLVGELRIIKSVLRSWKNWTATCPAFAPLLIQPLRRQRVVVVPLSPRLVLLAFCRQRLPKRMGGSYRCVNASTANAERVRNGLKFAGVGGGALWPVSQQGQNQRYRFANHAFTLVASVTIHEAPRAASPLLGASLDSSGGKKLLGLSYDEKHQWQPIYGSTPVTPTGSWETGKRYHLVLTMANKIGSVYIDGELLEGSGQTVVPDGRTPDISHFYVGGYKRSDMPTISHVTVNNVLLYNRRQLNTEEIRTLFLSQDLIGTEAHMDSSSDSSAHSTPSTPADSSAHSTPSTPVDSSAHSTPSTPADSSAHGTPSTPVDSSAHGTPSTPADSSAHGTPSTPVDSSAHSTPSTPVDSSAHSTPSTPVDSSAHGAPSTPADSSAHGTPSTPVDSSAHGTPSTPADSSAHSTPSTPADSSAHSTPSTPADSSAHSTPSTPVDSSAHGTPSTPADSSAHSTPSTPADSSAHGTPSTPVDSSAHSTPSTPVDSSAHGTPSTPVDSSAHSTPSTPVDSSAHGTPSTPVDSSAHSTPSTPADSSAHSTPSTPADSSAHGTPSTPVDSSAHSTPSTPADSSAHSTPSTPVDSSAHSTPSTPADSSAHGTPSTPVDSSAHGTPSTPADSSAHSTPSTPADSSAHSTPSTPADSSAHSTPSTPVDSSAHSTPSTPADSSAHSTPSTPADSSAHSTPSTPADSSAHSTPSTPVDSSAHSTPSTPADSSAHGTPSTPADSSAHSTPSTPVDSSAHSTPSTPADSSAHGTPSTPADSSAHSTPSTPADSSAHGTPSTPADSSAHSTPSTPAGSSANGTVLILPDGAALSTFSGGGLLLCACALLLHVFFMAVF
neurite outgrowth in N18 cells (N18 cells): induced neurite outgrowth
PC12 cells protected from death (PC12 cells; TS 62 pM (equivalent to 12.5 ng/ml)): 45%
survival of PC12 cells grown in serum-free medium (PC12 cells; TS 2.5 ng/ml alone or with CNTF 50 ng/ml or LIF 0.5 ng/ml): 13%
PC12 cells protected from apoptotic death (PC12 cells; TS 2.5 ng/ml, NGF 0.5 ng/ml, alone or co-administered at the same concentrations): 15%
potency relative to NGF in preventing apoptosis (PC12 cells; molar basis): more potent on a molar basis; also recorded: at concentrations lower than those required by nerve growth factor; also recorded: more effective on a molar base
protection of PC12 cells from apoptosis induced by trophic factor withdrawal (PC12 cells; serum-free RPMI-1640/0.2% BSA, 17 hours, DAPI or TUNEL): effectively protected; also recorded: inhibits trophic factor withdrawal-induced apoptosis; also recorded: protects PC12 cells from apoptosis induced by trophic factor withdrawal in a dose dependent manner; also recorded: protected PC12 cells from apoptosis
duration of protection of PC12 cells by a single dose (PC12 cells; time course, TS 0.5 nM (FIG. 5B)): up to several days; also recorded: delayed trophic factor withdrawal-induced apoptotic death
dose showing efficacy as trophic factor for Schwann cells (human Schwann cells): ≥ 0.5 nM
inhibition of serum withdrawal-induced apoptosis of human Schwann cells (human Schwann cells; serum-free DMEM, 24-72 hours, DAPI): effectively inhibited; also recorded: dose-dependent inhibition
phosphorylation/activation of Akt kinase in PC12 cells (Akt kinase in PC12 cells; 100 ng/ml, 2, 5 or 10 minutes, phospho-Akt (Ser 473) antibody): becomes activated; also recorded: induces serine phosphorylation of Akt kinase
exposure time after which Akt becomes activated (Akt kinase in PC12 cells; TS 100 ng/ml): 2 to 5 min
IL-6 secretion by T-24 cells ([1]; 24 hours culture): stimulated IL-6 secretion
bacterial LPS concentration inducing the same IL-6 in T-24 cells ([1]; TS 1 μg/ml, 24 hr): 0.75 µg/mL
